By Kd is commonly meant the concentration at which binding is half-saturated.

Here are results for 1 molecule from paper PMC12486124 (bioRxiv, 2025).

The target in this test is reconstituted nucleosome (Xenopus laevis histone octamer on Widom 601 DNA) (Xenopus laevis). In words: fluorescence polarisation. A general note: Polarisation of emitted light reports the rotation of a fluorescent probe.

B1: E2F1-DP2 DNA binding domains heterodimer (complex)
chain 1: not shown
chain 2: KNGKGLRHFSMKVCEKVQRKGTTSYNEVADELVSEFTNSNNHLAADSAYDQKNIRRRVYDALNVLMAMNIISKEKKEIKWIG
For the molecule B1, the affinity, expressed as Kd, was 120 ± 10 nM.
